Test results published in patent US20150376265A1 (Genentech, published 2015).

T1: HCMV gH on virions of strain VR1814 (HCMV, UniProt P12824 24-743)
T1 sequence: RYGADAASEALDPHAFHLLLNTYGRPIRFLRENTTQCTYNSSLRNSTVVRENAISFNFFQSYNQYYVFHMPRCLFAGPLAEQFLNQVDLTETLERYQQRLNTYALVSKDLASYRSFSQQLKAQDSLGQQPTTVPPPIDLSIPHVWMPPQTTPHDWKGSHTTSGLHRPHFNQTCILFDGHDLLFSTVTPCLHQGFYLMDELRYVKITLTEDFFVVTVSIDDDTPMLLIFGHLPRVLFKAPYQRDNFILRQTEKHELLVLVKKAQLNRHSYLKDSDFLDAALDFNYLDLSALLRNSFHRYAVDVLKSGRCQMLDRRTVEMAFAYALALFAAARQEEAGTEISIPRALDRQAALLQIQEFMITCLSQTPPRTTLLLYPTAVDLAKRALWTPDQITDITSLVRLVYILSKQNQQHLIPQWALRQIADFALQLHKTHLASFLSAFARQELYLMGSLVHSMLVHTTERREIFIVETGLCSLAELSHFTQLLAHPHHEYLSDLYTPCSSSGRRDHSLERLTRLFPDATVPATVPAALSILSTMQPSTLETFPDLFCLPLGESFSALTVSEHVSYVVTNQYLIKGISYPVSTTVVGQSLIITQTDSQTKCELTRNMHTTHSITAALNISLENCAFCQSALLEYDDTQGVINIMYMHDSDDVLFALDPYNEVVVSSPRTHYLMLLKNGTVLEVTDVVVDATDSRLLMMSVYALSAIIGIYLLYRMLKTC

T2: soluble baculovirus-expressed gH/gL (HCMV, UniProt P12824 24-720; P16832 31-278)
T2 construct: also called gH/gL dimer produced in baculovirus; baculovirus expressed, secreted gH/gL
T2 sequence 1: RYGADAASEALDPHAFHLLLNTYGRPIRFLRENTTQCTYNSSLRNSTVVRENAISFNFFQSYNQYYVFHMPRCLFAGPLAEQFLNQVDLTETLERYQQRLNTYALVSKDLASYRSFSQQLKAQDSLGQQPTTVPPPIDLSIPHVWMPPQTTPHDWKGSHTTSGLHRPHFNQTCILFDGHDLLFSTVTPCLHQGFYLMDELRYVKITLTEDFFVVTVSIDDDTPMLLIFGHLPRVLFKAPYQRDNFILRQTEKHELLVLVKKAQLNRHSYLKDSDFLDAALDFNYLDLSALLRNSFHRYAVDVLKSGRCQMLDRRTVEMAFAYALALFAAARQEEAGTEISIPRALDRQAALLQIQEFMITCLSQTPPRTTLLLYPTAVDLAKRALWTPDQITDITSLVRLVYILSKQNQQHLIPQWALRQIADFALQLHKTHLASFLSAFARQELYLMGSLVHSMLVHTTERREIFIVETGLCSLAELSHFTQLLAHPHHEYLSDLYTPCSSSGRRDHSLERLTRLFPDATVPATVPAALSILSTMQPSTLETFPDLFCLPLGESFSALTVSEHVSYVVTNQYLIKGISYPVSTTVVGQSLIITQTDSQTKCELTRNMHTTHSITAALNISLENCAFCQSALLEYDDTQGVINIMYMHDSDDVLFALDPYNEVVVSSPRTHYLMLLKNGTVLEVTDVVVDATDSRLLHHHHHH
T2 sequence 2: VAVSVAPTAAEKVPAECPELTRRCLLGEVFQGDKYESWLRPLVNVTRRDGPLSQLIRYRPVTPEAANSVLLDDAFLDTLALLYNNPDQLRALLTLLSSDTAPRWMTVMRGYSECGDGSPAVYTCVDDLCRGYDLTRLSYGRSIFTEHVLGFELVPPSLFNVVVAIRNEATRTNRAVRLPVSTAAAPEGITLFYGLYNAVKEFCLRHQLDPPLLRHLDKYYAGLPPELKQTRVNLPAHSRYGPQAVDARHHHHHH


Key:
[1] = target: T1, HCMV gH on virions of strain VR1814; assay: cell-based or functional assay
[2] = target: T1, HCMV gH on virions of strain VR1814; assay: cell-based or functional assay; remark: listed apart in the source
[3] = target: T1, HCMV gH on virions of strain VR1814; assay: cell-based or functional assay; remark: listed apart in the source
[4] = target: T2, soluble baculovirus-expressed gH/gL; assay: competition phage ELISA: phage-displayed Fab with serially diluted soluble gH/gL, free phage caught on coated gH/gL

Row | Binder | IC50 [4] [nM] | further results
1 | MSL-109 (antibody, V domains shown) VH: EEQVLESGGGLVKPGGSLRLSCAASGFTFSPYSVFWVRQAPGKGLEWVSSINSDSTYKYYADSVKGRFTISRDNAENSIFLQMNSLRAEDTAVYYCARDRSYYAFSSGSLSDYYYGLDVWGQGTLVTVSS VL: DIVMTQSPLSLSVTPGEPASISCRSSQSLLHTNGYNYLDWYVQKPGQSPQLLIYLASNRASGVPDRFSGSGSGTDFTLKISRVETEDVGVYYCMQALQIPRTFGQGTKVEIK |  | EC50, neutralisation of HCMV strain VR1814 on endothelial cells [1]: 0.0764 µg/mL; EC50, neutralisation of HCMV strain VR1814 on epithelial cells [1]: 0.164 µg/mL; EC50, neutralisation of HCMV strain VR1814 on fibroblasts [1]: 0.389 µg/mL; Epithelial EC50 (first pair of columns), neutralisation [2]: 0.3 µg/mL; Epithelial EC50 (second pair of columns), neutralisation [2]: 0.48 µg/mL; Fibroblast EC50, neutralisation [2]: 0.73 µg/mL; MDM EC50, neutralisation [2]: 0.04 µg/mL
2 | MSL-109 Fab fragment (WT) (Fab, V domains shown) VH: EEQVLESGGGLVKPGGSLRLSCAASGFTFSPYSVFWVRQAPGKGLEWVSSINSDSTYKYYADSVKGRFTISRDNAENSIFLQMNSLRAEDTAVYYCARDRSYYAFSSGSLSDYYYGLDVWGQGTLVTVSS VL: DIVMTQSPLSLSVTPGEPASISCRSSQSLLHTNGYNYLDWYVQKPGQSPQLLIYLASNRASGVPDRFSGSGSGTDFTLKISRVETEDVGVYYCMQALQIPRTFGQGTKVEIK |  | EC50, inhibition of HCMV entry into ARPE-19 cells, Fab fragments from E. coli [3]: 6.2 nM
3 | HB2 Fab fragment, H2-D53Q/T55R (HB2) (Fab, name in Kabat numbering, V domains shown) VH: EEQVLESGGGLVKPGGSLRLSCAASGFTFSPYSVFWVRQAPGKGLEWVSSINSQSRYKYYADSVKGRFTISRDNAENSIFLQMNSLRAEDTAVYYCARDRSYYAFSSGSLSDYYYGLDVWGQGTLVTVSS VL: DIVMTQSPLSLSVTPGEPASISCRSSQSLLHTNGYNYLDWYVQKPGQSPQLLIYLASNRASGVPDRFSGSGSGTDFTLKISRVETEDVGVYYCMQALQIPRTFGQGTKVEIK | 0.01 | 
4 | MSL-109 Fab variant H2-D53T (Fab, name in Kabat numbering, V domains shown) VH: EEQVLESGGGLVKPGGSLRLSCAASGFTFSPYSVFWVRQAPGKGLEWVSSINSTSTYKYYADSVKGRFTISRDNAENSIFLQMNSLRAEDTAVYYCARDRSYYAFSSGSLSDYYYGLDVWGQGTLVTVSS VL: DIVMTQSPLSLSVTPGEPASISCRSSQSLLHTNGYNYLDWYVQKPGQSPQLLIYLASNRASGVPDRFSGSGSGTDFTLKISRVETEDVGVYYCMQALQIPRTFGQGTKVEIK | 0.06 | 
5 | MSL-109 Fab variant H2-D53F/T55R (Fab, name in Kabat numbering, V domains shown) VH: EEQVLESGGGLVKPGGSLRLSCAASGFTFSPYSVFWVRQAPGKGLEWVSSINSFSRYKYYADSVKGRFTISRDNAENSIFLQMNSLRAEDTAVYYCARDRSYYAFSSGSLSDYYYGLDVWGQGTLVTVSS VL: DIVMTQSPLSLSVTPGEPASISCRSSQSLLHTNGYNYLDWYVQKPGQSPQLLIYLASNRASGVPDRFSGSGSGTDFTLKISRVETEDVGVYYCMQALQIPRTFGQGTKVEIK | 0.01 | 
6 | MSL-109 Fab variant H2-D53S (Fab, name in Kabat numbering, V domains shown) VH: EEQVLESGGGLVKPGGSLRLSCAASGFTFSPYSVFWVRQAPGKGLEWVSSINSSSTYKYYADSVKGRFTISRDNAENSIFLQMNSLRAEDTAVYYCARDRSYYAFSSGSLSDYYYGLDVWGQGTLVTVSS VL: DIVMTQSPLSLSVTPGEPASISCRSSQSLLHTNGYNYLDWYVQKPGQSPQLLIYLASNRASGVPDRFSGSGSGTDFTLKISRVETEDVGVYYCMQALQIPRTFGQGTKVEIK | 0.1 | 
7 | MSL-109 Fab variant H2-D53S/T55R (Fab, name in Kabat numbering, V domains shown) VH: EEQVLESGGGLVKPGGSLRLSCAASGFTFSPYSVFWVRQAPGKGLEWVSSINSSSRYKYYADSVKGRFTISRDNAENSIFLQMNSLRAEDTAVYYCARDRSYYAFSSGSLSDYYYGLDVWGQGTLVTVSS VL: DIVMTQSPLSLSVTPGEPASISCRSSQSLLHTNGYNYLDWYVQKPGQSPQLLIYLASNRASGVPDRFSGSGSGTDFTLKISRVETEDVGVYYCMQALQIPRTFGQGTKVEIK | 0.03 | 
8 | MSL-109 Fab variant H2-D53M (Fab, name in Kabat numbering, V domains shown) VH: EEQVLESGGGLVKPGGSLRLSCAASGFTFSPYSVFWVRQAPGKGLEWVSSINSMSTYKYYADSVKGRFTISRDNAENSIFLQMNSLRAEDTAVYYCARDRSYYAFSSGSLSDYYYGLDVWGQGTLVTVSS VL: DIVMTQSPLSLSVTPGEPASISCRSSQSLLHTNGYNYLDWYVQKPGQSPQLLIYLASNRASGVPDRFSGSGSGTDFTLKISRVETEDVGVYYCMQALQIPRTFGQGTKVEIK | 0.05 | 
9 | MSL-109 Fab variant H2-D53M/T55R (Fab, name in Kabat numbering, V domains shown) VH: EEQVLESGGGLVKPGGSLRLSCAASGFTFSPYSVFWVRQAPGKGLEWVSSINSMSRYKYYADSVKGRFTISRDNAENSIFLQMNSLRAEDTAVYYCARDRSYYAFSSGSLSDYYYGLDVWGQGTLVTVSS VL: DIVMTQSPLSLSVTPGEPASISCRSSQSLLHTNGYNYLDWYVQKPGQSPQLLIYLASNRASGVPDRFSGSGSGTDFTLKISRVETEDVGVYYCMQALQIPRTFGQGTKVEIK | 0.07 | 
10 | MSL-109 Fab variant H2-D53L/T55R (Fab, name in Kabat numbering, V domains shown) VH: EEQVLESGGGLVKPGGSLRLSCAASGFTFSPYSVFWVRQAPGKGLEWVSSINSLSRYKYYADSVKGRFTISRDNAENSIFLQMNSLRAEDTAVYYCARDRSYYAFSSGSLSDYYYGLDVWGQGTLVTVSS VL: DIVMTQSPLSLSVTPGEPASISCRSSQSLLHTNGYNYLDWYVQKPGQSPQLLIYLASNRASGVPDRFSGSGSGTDFTLKISRVETEDVGVYYCMQALQIPRTFGQGTKVEIK | 0.02 | 
11 | MSL-109 Fab variant H2-T55R (Fab, name in Kabat numbering, V domains shown) VH: EEQVLESGGGLVKPGGSLRLSCAASGFTFSPYSVFWVRQAPGKGLEWVSSINSDSRYKYYADSVKGRFTISRDNAENSIFLQMNSLRAEDTAVYYCARDRSYYAFSSGSLSDYYYGLDVWGQGTLVTVSS VL: DIVMTQSPLSLSVTPGEPASISCRSSQSLLHTNGYNYLDWYVQKPGQSPQLLIYLASNRASGVPDRFSGSGSGTDFTLKISRVETEDVGVYYCMQALQIPRTFGQGTKVEIK | 0.17 | 
12 | MSL-109 Fab variant H2-D53N (Fab, name in Kabat numbering, V domains shown) VH: EEQVLESGGGLVKPGGSLRLSCAASGFTFSPYSVFWVRQAPGKGLEWVSSINSNSTYKYYADSVKGRFTISRDNAENSIFLQMNSLRAEDTAVYYCARDRSYYAFSSGSLSDYYYGLDVWGQGTLVTVSS VL: DIVMTQSPLSLSVTPGEPASISCRSSQSLLHTNGYNYLDWYVQKPGQSPQLLIYLASNRASGVPDRFSGSGSGTDFTLKISRVETEDVGVYYCMQALQIPRTFGQGTKVEIK | 0.06 | 
13 | MSL-109 Fab variant H2-D53T/T55R (Fab, name in Kabat numbering, V domains shown) VH: EEQVLESGGGLVKPGGSLRLSCAASGFTFSPYSVFWVRQAPGKGLEWVSSINSTSRYKYYADSVKGRFTISRDNAENSIFLQMNSLRAEDTAVYYCARDRSYYAFSSGSLSDYYYGLDVWGQGTLVTVSS VL: DIVMTQSPLSLSVTPGEPASISCRSSQSLLHTNGYNYLDWYVQKPGQSPQLLIYLASNRASGVPDRFSGSGSGTDFTLKISRVETEDVGVYYCMQALQIPRTFGQGTKVEIK | 0.03 | 
14 | MSL-109 Fab variant H2-D53L (Fab, name in Kabat numbering, V domains shown) VH: EEQVLESGGGLVKPGGSLRLSCAASGFTFSPYSVFWVRQAPGKGLEWVSSINSLSTYKYYADSVKGRFTISRDNAENSIFLQMNSLRAEDTAVYYCARDRSYYAFSSGSLSDYYYGLDVWGQGTLVTVSS VL: DIVMTQSPLSLSVTPGEPASISCRSSQSLLHTNGYNYLDWYVQKPGQSPQLLIYLASNRASGVPDRFSGSGSGTDFTLKISRVETEDVGVYYCMQALQIPRTFGQGTKVEIK | 0.02 | 
